What is called Kd is the equilibrium constant for the complex coming apart. A lower Kd goes with tighter binding.

Consider three molecules from publication PMC5449603.

Assay in all cases: fluorescence anisotropy
On the technique in general: Fluorescence polarisation rises when a labelled molecule tumbles more slowly, as on binding a larger partner.

For data set [1], the target named is T1, Sub1 (Saccharomyces cerevisiae, UniProt P54000 1-292).
T1 sequence: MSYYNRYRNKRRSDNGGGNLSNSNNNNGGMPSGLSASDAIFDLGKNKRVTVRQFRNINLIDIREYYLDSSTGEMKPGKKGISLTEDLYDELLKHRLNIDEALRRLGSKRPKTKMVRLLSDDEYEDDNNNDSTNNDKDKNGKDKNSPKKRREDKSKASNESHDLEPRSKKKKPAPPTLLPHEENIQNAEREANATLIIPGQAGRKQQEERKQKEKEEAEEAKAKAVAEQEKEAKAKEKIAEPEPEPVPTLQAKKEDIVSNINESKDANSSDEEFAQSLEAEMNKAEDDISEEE

The target of another data set is PC4 (hSub1, p15) (human, UniProt P53999 1-127).
Data set [2] deals with T1, Sub1. This is another data set of the same source.

Read-outs that look alike come from different tables or passages of the source.

B1: SµG (FAM) (structured_DNA)
DNA: GAGCTGGGGTGAGCTGGGCTGAGCTGGGGTGAGCTGGGCTGAGCT
Take B1: binding in the data set with Sub1 [1] was put at a Kd of 8.7 ± 1.7 nM.

B2: Duplex (FAM) (dsDNA)
DNA 1: GATACTATTGGGTGGGTAGGGTGGGTTTACATGT
DNA 2: ACATGTAAACCCACCCTACCCACCCAATAGTATC
With B2, in the data set with Sub1 [1], the binding result is recorded as “no binding”. In addition, the Kd in the data set with PC4 (hSub1, p15) came out at 38.7 ± 8 nM.

B3: ssDNA (FAM) (ssDNA)
DNA: GGTGTGTGGAGCGTGCGTTT
For the molecule B3, the Kd turned out to be 9 ± 0.9 nM with PC4 (hSub1, p15) and 21.2 ± 1.1 nM with Sub1 [2].
